Measured values from patent US5574007A, “Polypeptide capable of interacting with thrombin” (Asahi Kasei Kogyo Kabushiki Kaisha, priority 1990, dated 1996).

Experiments:
[1] = target: thrombin (Homo sapiens, UniProt P00734); assay: Capability of binding to thrombin of thrombomodulin deletion polypeptides; settings: expressed in COS-1 cells, purified
[2] = target: T1, thrombin-catalyzed activation of protein C (Homo sapiens, UniProt P00734); assay: Activated protein C formation against reaction time with purified polypeptide (Example 4-(6)); format: biochemical
T1 construct: are added 50 μg/ml protein C, 5 nM thrombin and 5 nM of each of the purified polypeptides
Description: To 0.02M Tris-HCl buffer (pH 8.5) containing 0.1M NaCl, 0.5 mM CaCl2 and 10 mg/ml BSA are added 50 μg/ml protein C, 5 nM thrombin and 5 nM of each of the purified polypeptides of the present invention, and reacted at 37° C. To each of the reaction mixtures are added 300 μg/ml antithrombin III (manufactured and sold by Sigma Chemical Company, U.S.A.) and 5 mM EDTA to terminate the reaction. Then, the amount of the activated protein C produced by the reaction is determined by the method described in Example 1-(3) in which a synthetic substrate is used.

[3] = target: T2, thrombin-catalyzed conversion of fibrinogen to fibrin (Homo sapiens, UniProt P00734); assay: Anticoagulating activity: clotting time of a fibrinogen solution; format: biochemical; settings: 0 to 50 nM polypeptide, 10 nM thrombin; polypeptide from COS-1 or CHO cells
T2 construct: Then, 10 nM thrombin is added to the mixture
Description: The activity of each of the polypeptides of the present invention to inhibit the thrombin-catalyzed conversion of fibrinogen to fibrin so as to inhibit blood coagulation, is determined by measuring clotting time using Coagulometer KC-10A (manufactured and sold by Heinrich Amelung A.G., Germany). Illustratively stated, to 0.05M Tris-HCl buffer (pH 7.5) containing 5 mM CaCl2 and 0.1M NaCl is added 3.0 μg of fibrinogen (Fraction I, manufactured and sold by Sigma Chemical Company, U.S.A.). To the resultant mixture is added 0 to 50 nM of each of the purified polypeptides of the present invention. Then, 10 nM thrombin is added to the mixture in such an amount that the total amount of the mixture becomes 0.4 ml, and then the coagulation time of the mixture is measured.

[4] = test system: thrombin-catalyzed platelet aggregation; assay: Platelet aggregation-inhibiting activity (Platelet Rich Plasma, HEMA TRACER IV); format: cell-based; settings: polypeptide in molar amount equal to or more than thrombin; polypeptide from COS-1 or CHO cells
Description: The activity of each of the polypeptides of the present invention to inhibit the thrombin-catalyzed platelet aggregation is evaluated using platelet aggregation measuring apparatus HEMA TRACER IV (manufactured and sold by NIKO Bioscience, Inc., Japan). Measurement is carried out according to the manual attached thereto. When 40 μl of a 20 NIH unit/ml thrombin solution (manufactured and sold by SIGMA Chemical Co., U.S.A., T 6759) is added to 180 μl of a Platelet Rich Plasma (PRP) platelet solution (3×10^5 cells/μl) and incubated, the aggregation of platelets occurs. […] The aggregation of platelets is determined on the basis of the transparency, assuming the transparency of Platelet Poor Plasma (PPP) solution as 100%. The ratio of platelet aggregation is plotted against the incubation time (0 min: the time when thrombin or a mixture of thrombin and one of the polypeptides is added to the PRP solution). It is confirmed that the platelet aggregation is inhibited when one of the polypeptides of the present invention is added.

[5] = target: T1, thrombin-catalyzed activation of protein C; assay: Activity to promote the activation of protein C (Example 9-(4)); format: biochemical
Description: With respect to the polypeptide purified in Example 9-(3), the activity to promote the activation of protein C is measured according to the following method. That is, 10 μl of a peptide solution (10 nM), 10 μl of thrombin (15 nM), 10 μl of protein C (3.2 μM), 10 μl of 10×Assay buffer [0.5M Tris HCl (pH 7.5) containing 1% BSA, 1M NaCl and 20 mM CaCl2 ] and 60 μl of distilled water are mixed together. The mixture is reacted at 37° C. for one hour, and antithrombin III and hepalin are added at final concentrations of 100 nM and lu/ml, respectively, thereby stopping the reaction. To measure the concentration of activated protein C, the concentration of AMC ([…]) liberated from a 200 μM substrate of Boc-Leu-Ser-Thr-Arg-MCA in a buffer containing 0.05M Tris HCl (pH 8.0) and 0.1M CsCl is measured at an excitation wavelength of 380 nm and a measuring wavelength of 440 nm.

B1: polypeptide comprised of the 366th to 442nd amino acid residues of human thrombomodulin: deletion polypeptide expressed in COS-1 cells using vector pSV2 (protein)
chain: VDPCFRANCEYQCQPLNQTSYLCVCAEGFAPIPHEPHRCQMFCNQTACPADCDPNTQASCECPEGYILDDGFICTDI
[1]
  capability of binding to thrombin (in words): had the capability of binding to thrombin

B2: polypeptide comprised of the 407th to 480th amino acid residues of human thrombomodulin: deletion polypeptide expressed in COS-1 cells using vector pSV2 (protein)
chain: FCNQTACPADCDPNTQASCECPEGYILDDGFICTDIDECENGGFCSGVCHNLPGTFECICGPDSALVRHIGTDC
[1]
  capability of binding to thrombin (in words): had the capability of binding to thrombin

B3: E456GlaAsp: polypeptide from PTTM2 CHO cells transfected with pSV2PTTMM6 (prothrombin leader), gamma-carboxyglutamic acid confirmed (protein)
chain: PVEDPCFRANCEYQCQPLNQTSYLCVCAEGFAPIPHEPHRCQMFCNQTACPADCDPNTQASCECPEGYILDDGFICTDIDECENGGFCSGVCHNLPGTFECICGPDSALVRHIGTDC
modifications: gamma-carboxyglutamic acid (Gla) in place of the Glu inserted before Asp367 (third residue of the purified polypeptide, where Edman degradation detected no amino acid); Gla confirmed by amino acid anal
[2]; 5 nM polypeptide, 5 nM thrombin, 50 μg/ml protein C, 37° C., polypeptide from COS-1 or CHO cells
  amount of activated protein C with reaction time (in words): increased with the lapse of reaction time
[2]; 30 min after the polypeptide addition
  amount of protein C activated, larger than in the presence of E456Glu: 80%
[3]
  clotting time of fibrinogen solution against amount of polypeptide (in words): the longer the clotting time
[4]
  thrombin-catalyzed platelet aggregation (in words): inhibited

B4: E45: polypeptide of the 367th to 442nd amino acid residues of human thrombomodulin (pSV2TMD9) (protein)
chain: DPCFRANCEYQCQPLNQTSYLCVCAEGFAPIPHEPHRCQMFCNQTACPADCDPNTQASCECPEGYILDDGFICTDI
[5]
  activity relative to that of the 114-amino acid polypeptide: about one-tenth
[5]; peptide solution 10 nM, thrombin 15 nM, protein C 3.2 μM, 37° C., one hour
  production of activated protein C: 1.7 pmol
